# According to patent US20060121022A1 (Chugai, published 2006):
# Positions count from the first letter of the chain named.
# T1: recombinant PCI (with Flag tag) (UniProt P05154)
# T1 sequence: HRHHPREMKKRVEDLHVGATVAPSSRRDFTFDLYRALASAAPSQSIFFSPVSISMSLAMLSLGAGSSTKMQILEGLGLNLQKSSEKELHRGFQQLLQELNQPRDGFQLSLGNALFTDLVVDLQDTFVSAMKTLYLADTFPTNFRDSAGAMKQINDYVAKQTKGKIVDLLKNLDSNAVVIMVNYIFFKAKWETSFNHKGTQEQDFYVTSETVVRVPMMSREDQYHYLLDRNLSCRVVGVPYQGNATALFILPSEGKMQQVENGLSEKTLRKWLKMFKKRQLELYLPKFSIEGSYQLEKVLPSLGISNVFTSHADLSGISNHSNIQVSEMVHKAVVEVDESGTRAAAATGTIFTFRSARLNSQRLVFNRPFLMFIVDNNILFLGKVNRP
# B1: anti-aPC antibody aPC#79 (hybridoma well No. 79) (antibody, IgG2b, V domains shown)
# VH: QVQLQQSGAELARPGASVKLSCKASGYTFTDSYMNWVKQRTGQGLEWIGEVYPETGNSYYNEKFKGKATLTADRSSKTAYMQLNSLTSEDSAVYFCTRGGTGFDYWGQGTTLTVSS
# VL: QIVLAQSPAIMSASLGERVTMTCTASSSVSSSYLHWYQQKPGSSPKAWIYSTSNLASGAPTRFSGSGSGTSYSLTISSMEAEDAATYYCHQYHRSPFTFGSGTKLEIK
# B2: anti-aPC antibody aPC#123 (hybridoma well No. 123) (antibody, IgG2b, V domains shown)
# VH: QVQLQQSGPELVKPGASVKISCKASGYAFSSSWMNWVKQRPGQGLEWIGRIYPGDGDTNYNGKFRGKATLTADKSSSTAYMQLTSLTSVDSAVYFCARWGITTAAWFAYWGQGTLVTVSA
# VL: DIQMTQSPASLSASVGETVTITCRTSENIYSYLAWYQQKQGKSPQLLVNNAKTLAEGVPSRFSGSGSGTQFSLKINSLQPEDFGTYYCQHYYGTPPTFGGGTKLEIK
# B3: anti-aPC antibody aPC#285 (hybridoma well No. 285) (antibody, IgG1, V domains shown)
# VH: QVQLQQSGSEVVKPGASVKISCKASGYAFSRSWMNWVKQRPGQGLEWIGRIYPGDGDSIYNGKFKGKATLTADKSSTTAYMHLNSLTSVDSAVYFCARWGSSGSSWFAYWGQGTLVTVSA
# VL: B2 VL with V15M, Q37R, N49Y, K74R, T85S, Y87F, T94S, P96Y
# B4: anti-aPC antibody aPC#281 (hybridoma well No. 281) (antibody, IgG1, V domains shown)
# VH: QIQLVQSGPELEKPGETVRISCKASGYTFTDYSLHWVKQAPGKGLKWMGWINTETGEPTYADDLKGRFAFSLETSATTAYLQINNLKNEDTATYFCARGITLDYWGQGTSLTVSS
# VL: DNVMSQSPSSLAVSVGEKVTMSCKSSQSLLSSSNQKNFLAWYQQKPGQSPKLLISWASTRHSGVPDRFTGSGSGTDFTLTISSVNAEDLAVYYCQQYYRYPLTFGAGTKLELK
# How the values were obtained:
# [1] = biological target: T1, recombinant PCI (with Flag tag)
# [2] = biological target: activated protein C (aPC; protein C from human plasma, activated, SIGMA P-2200) (human, UniProt P04070 43-461); assay: cell-based or functional assay
# activated protein C (aPC; protein C from human plasma, activated, SIGMA P-2200), sequence (P04070 43-461): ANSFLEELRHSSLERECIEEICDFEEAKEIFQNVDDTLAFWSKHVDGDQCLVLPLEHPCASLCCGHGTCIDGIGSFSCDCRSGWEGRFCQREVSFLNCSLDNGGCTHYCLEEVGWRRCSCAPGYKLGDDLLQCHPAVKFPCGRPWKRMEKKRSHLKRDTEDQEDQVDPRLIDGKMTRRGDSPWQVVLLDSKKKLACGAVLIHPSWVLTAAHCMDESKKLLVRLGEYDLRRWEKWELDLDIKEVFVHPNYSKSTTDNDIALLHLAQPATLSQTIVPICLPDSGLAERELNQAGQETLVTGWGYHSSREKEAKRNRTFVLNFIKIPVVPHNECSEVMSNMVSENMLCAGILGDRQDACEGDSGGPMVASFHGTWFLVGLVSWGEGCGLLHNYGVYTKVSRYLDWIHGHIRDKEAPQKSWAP
molecule,measurement,setting,value
"activated protein C (aPC; protein C from human plasma, activated, SIGMA P-2200)","absorbance (at 405 nm), substrate S-2366; CONTROL (aPC with PCI, no antibody), AVERAGE (absorbance at 405 nm)",[1],0.262
same,"absorbance (at 405 nm), substrate S-2366; CONTROL (aPC with PCI, no antibody), first replicate (absorbance at 405 nm)",[1],0.278
same,"absorbance (at 405 nm), substrate S-2366; CONTROL (aPC with PCI, no antibody), second replicate (absorbance at 405 nm)",[1],0.245
B1,"…ON SUPPRESSION RATE (%), EXPERIMENT 1 (APTT coagulation time, human plasma)",[2],88%
same,"…ON SUPPRESSION RATE (%), EXPERIMENT 2 (APTT coagulation time, human plasma)",[2],68.3%
B2,"…ON SUPPRESSION RATE (%), EXPERIMENT 1 (APTT coagulation time, human plasma)",[2],23.4%
same,"…ON SUPPRESSION RATE (%), EXPERIMENT 2 (APTT coagulation time, human plasma)",[2],20.7%
B3,"…ON SUPPRESSION RATE (%), EXPERIMENT 1 (APTT coagulation time, human plasma)",[2],24.5%
same,"…ON SUPPRESSION RATE (%), EXPERIMENT 2 (APTT coagulation time, human plasma)",[2],28.2%
B4,"…ON SUPPRESSION RATE (%), EXPERIMENT 1 (APTT coagulation time, human plasma)",[2],33.8%
same,"…ON SUPPRESSION RATE (%), EXPERIMENT 2 (APTT coagulation time, human plasma)",[2],21.6%
